Measured values taken from patent publication US20200385438A1 (Stanford University, published 2020).
Positions count from the first letter of the chain named.

T1: biotinylated recombinant BH3-tagged mIL-2 (mouse, UniProt P04351 21-169, biotinylated with BirA enzyme (on the tag))
T1 construct: Secreted by Hi5 insect cells and immobilized on an SA sensor chip for SPR; also called biotinylated mouse IL-2; biotinylated IL-2; not shown: BH3 tag
T1 sequence (looked up): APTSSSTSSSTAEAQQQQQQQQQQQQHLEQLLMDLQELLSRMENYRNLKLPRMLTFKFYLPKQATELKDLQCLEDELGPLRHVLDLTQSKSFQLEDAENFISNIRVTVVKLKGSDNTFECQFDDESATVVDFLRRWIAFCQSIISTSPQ

B1: WT (receptor)
CD25 (IL-2Rα) chain: ELCDDDPPEIPHATFKAMAYKEGTMLNCECKRGFRRIKSGSLYMLCTGNSSHSSWDNQCQCTSSATRNTTKQVTPQPEEQKERKTTEMQSPMQPVDQASLPGHCREPPPWENEATERIYHFVVGQMVYYQCVQGYRALHRGPAESVCKMTHGKTRWTQPQLICTGEMETSQFPGEEKPQASPEGRPESETSCLVTTTDFQIQTEMAATMETSIFTTE
notes: also called WT hCD25; wild-type human CD25
B2: B5 (receptor)
CD25 (IL-2Rα) chain: B1 CD25 (IL-2Rα) chain with M25I, N27V, E29D, L42A, I118R, H120W, K153Q
notes: also called B5 hCD25
B3: E8 (receptor)
CD25 (IL-2Rα) chain: B1 CD25 (IL-2Rα) chain with L2Q, M25V, N27Y, L42A, I118R, H120W
notes: also called E8 hCD25
B4: F5 (receptor)
CD25 (IL-2Rα) chain: B1 CD25 (IL-2Rα) chain with M25L, N27V, L42A, I118N, H120M, K153G
notes: also called F5 hCD25
B5: WT (receptor)
CD25 (IL-2Rα) chain: ELCLYDPPEVPNATFKALSYKNGTILNCECKRGFRRLKELVYMRCLGNSWSSNCQCTSNSHDKSRKQVTAQLEHQKEQQTTTDMQKPTQSMHQENLTGHCREPPPWKHEDSKRIYHFVEGQSVHYECIPGYKALQRGPAISICKMKCGKTGWTQPQLTCVDEREHHRFLASEESQGSRNSSPESETSCPITTTDFPQPTETTAMTETFVLTME
notes: also called WT mCD25; wild-type mouse CD25
B6: B4 (receptor)
CD25 (IL-2Rα) chain: B5 CD25 (IL-2Rα) chain with N27E, E29R, V41W, Y42I, M43V, N59T, I114E, H116T
notes: also called B4 mCD25

target: T2, biotinylated recombinant BH3-tagged hIL-2 (human, UniProt P60568 21-153, biotinylated with BirA enzyme (on the tag)); assay: SPR (Biacore T100), biotinylated hIL-2 immobilised on an SA chip, soluble CD25 flowed over
T2 construct: Secreted by Hi5 insect cells and immobilized on an SA sensor chip for SPR; also called biotinylated human IL-2; biotinylated IL-2; not shown: BH3 tag
Text: (§1) FIG. 4A-4B—Sequences and affinities of high affinity CD25 variants. DNA encoding high affinity variants was extracted after clone screens by yeast plasmid minipreps. Sequences for hCD25 (FIG. 4A) and mCD25 (FIG. 4B) clones are aligned with wild-type (WT) CD25. Residues are the same as WT except as noted, and the EAV sequence is not aligned to WT mCD25 due to differences between species. Consensus mutations for hCD25 are highlighted in blue, and deletions are marked by dashes. Affinity measurements for each clone were determined by surface plasmon resonance.
(§2) Surface plasmon resonance (FIG. 4). Sequences of high-affinity CD25 identified from the clone screens were determined by yeast miniprep (Zymo Research), and cloned into pAcBN vectors for expression in Hi5 cells. Soluble high-affinity CD25 proteins were purified by FPLC. Affinity was measured by surface plasmon resonance (Biacore T100), with biotinylated mouse or human IL-2 immobilized on a SA sensor chip (GE Healthcare). CD25 variants were flowed over the chip and the chip was regenerated between runs.

T2 sequence (P60568 21-153): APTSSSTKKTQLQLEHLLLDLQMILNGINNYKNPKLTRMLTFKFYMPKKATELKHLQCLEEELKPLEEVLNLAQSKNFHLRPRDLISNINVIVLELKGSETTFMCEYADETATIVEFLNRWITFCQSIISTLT

| Kd [nM] | Binder |
| --- | --- |
| 2 | B1 |
| 0.046 | B2 |
| 0.045 | B3 |
| 0.086 | B4 |

target: T1, biotinylated recombinant BH3-tagged …; assay: SPR (Biacore T100), biotinylated mIL-2 immobilised on an SA chip, soluble CD25 flowed over
Text: as §1, §2

| Kd [nM] | Binder |
| --- | --- |
| 6.9 | B5 |
| 0.46 | B6 |
